{
  "source": "paper PMC11946224",
  "key": {"[1]": {"molecular_target": "recombinant cylindracin (C-terminal cysteine-rich domain of cylindracin) (Cyclocybe cylindracea)", "experiment": "cross-linking; rCYL at 0.25 mg/mL (39 uM) with 0.005-5 mM BS(PEG)9 in 20 mM sodium phosphate pH 7.2, 150 mM NaCl, 25 C, 30 min; SDS-PAGE, Coomassie staining"}, "[2]": {"molecular_target": "recombinant cylindracin (C-terminal cysteine-rich domain of cylindracin) (Cyclocybe cylindracea)", "experiment": "cross-linking; rCYL raised from 0.25 mg/mL (39 uM) to 2.0 mg/mL (312 uM) with BS(PEG)9 at 500 uM; SDS-PAGE, Coomassie staining"}, "[3]": {"molecular_target": "recombinant cylindracin (C-terminal cysteine-rich domain of cylindracin) (Cyclocybe cylindracea)", "experiment": "cross-linking; rCYL raised from 0.25 mg/mL (39 uM) to 2.0 mg/mL (312 uM) with BS(PEG)9 at 500 uM; SDS-PAGE, Coomassie staining", "remark": "listed apart in the source"}},
  "data": [
    {"substance": "recombinant cylindracin (C-terminal cysteine-rich domain of cylindracin) (domain or fragment)", "values": [
      {"measurement": "stoichiometry N", "setting": "[1]", "value": 2},
      {"measurement": "stoichiometry N", "setting": "[2]", "value": 4},
      {"measurement": "stoichiometry N", "setting": "[3]", "value": 2}
    ]}
  ]
}
